The values below come from patent US20240124563A1.

For assay [1], the target named is monkey MSLN full-length protein on HEK293T cells (monkey). Briefly: FACS, HEK293T-monkey-MSLN cells, antibody 0.0064 nM. A general note: In flow cytometry, cells or beads pass a laser one at a time.
For assay [2] the target is unchanged. Briefly: FACS, HEK293T-monkey-MSLN cells, antibody 0.16 nM.
For assay [3] the target is unchanged. As to the kind of experiment: FACS, HEK293T-monkey-MSLN cells, antibody 4 nM.
For assay [4] the target is unchanged. Briefly: FACS, HEK293T-monkey-MSLN cells, antibody 0.032 nM.
The target is the same in assay [5]. Briefly: FACS, HEK293T-monkey-MSLN cells, antibody 100 nM.
The target is the same in assay [6]. As to the kind of experiment: FACS, HEK293T-monkey-MSLN cells, antibody 20 nM.
The target is the same in assay [7]. As to the kind of experiment: FACS, HEK293T-monkey-MSLN cells, antibody 0.8 nM.
Assay [8] has the same target. As to the kind of experiment: FACS, HEK293T-monkey-MSLN cells, antibody 0.00128 nM.
Assay [9] has as its target human MSLN-R3-rFc protein (human) (UniProt Q13421). As to the kind of experiment: ELISA, antibody 0.0064 nM.
For assay [10] the target is unchanged. Briefly: ELISA, antibody 20 nM. A general note: ELISA stands for enzyme-linked immunosorbent assay.
For assay [11] the target is unchanged. Briefly: ELISA, antibody 1 nM.
Assay [12] shares this target. As to the kind of experiment: ELISA, antibody 100 nM.
Assay [13] shares this target. As to the kind of experiment: ELISA, antibody 4 nM.
Assay [14] deals with monkey MSLN full-length protein on HEK293T cells (monkey). As to the kind of experiment: FACS, HEK293T-monkey MSLN cells.
Assay [15] has as its target human MSLN-R1-his protein (human) (UniProt Q13421). As to the kind of experiment: ELISA, coated antigen, 100 nM antibody.
Assay [16] has as its target human MSLN-FL-his protein (human) (UniProt Q13421). As to the kind of experiment: ELISA, coated antigen, 20 nM antibody.
Assay [17] addresses human MSLN-R2-his protein (human) (UniProt Q13421). As to the kind of experiment: ELISA, coated antigen, 100 nM antibody.
For assay [18], the target named is human MSLN-FL-his protein (human) (UniProt Q13421). Briefly: ELISA, coated antigen, 0.2 nM antibody.
Chain of human MSLN-FL-his protein (human) (Q13421 other isoform, or with tags, fused parts or gaps): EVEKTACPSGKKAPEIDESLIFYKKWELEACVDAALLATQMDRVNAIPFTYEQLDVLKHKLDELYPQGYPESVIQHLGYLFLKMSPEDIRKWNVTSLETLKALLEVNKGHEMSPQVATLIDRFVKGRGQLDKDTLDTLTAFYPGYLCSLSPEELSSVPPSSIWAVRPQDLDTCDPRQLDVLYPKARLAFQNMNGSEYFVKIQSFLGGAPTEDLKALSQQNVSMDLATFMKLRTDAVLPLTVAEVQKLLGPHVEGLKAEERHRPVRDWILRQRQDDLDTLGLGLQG

Chain of human MSLN-R1-his protein (human) (Q13421 other isoform, or with tags, fused parts or gaps): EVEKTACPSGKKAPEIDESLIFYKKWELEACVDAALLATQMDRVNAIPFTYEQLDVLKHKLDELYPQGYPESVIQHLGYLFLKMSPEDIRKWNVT
Chain of human MSLN-R2-his protein (human) (Q13421 other isoform, or with tags, fused parts or gaps): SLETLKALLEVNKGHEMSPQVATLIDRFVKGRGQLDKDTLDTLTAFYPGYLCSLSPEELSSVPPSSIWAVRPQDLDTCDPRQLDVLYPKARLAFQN

Take “Tab131 (m912, scFv-hIgG1 Fc) (Fc fusion)”: the FACS signal (MFI) in assay [1] is 85; in [2], 83; in [3] it was 86; in assay [4] it was 106; in assay [5] it was 87; in [6], 85. Moreover, the FACS signal (MFI) is 87 in [7] and 93 in [8].
With “anti-human MSLN antibody (purchased from Acro, Cat. No. MSN-M30)”, the OD450 nm in assay [9] was found to be 0.16; in assay [10] it was 0.86; in assay [11], 0.11; in [12], 1.11; in [13], 0.23.
Broadly, the EC50 is the concentration giving half of the maximal effect. In assay [14], “Tab108 (YP218, scFv-hIgG1 Fc) (Fc fusion)” displayed an EC50 of 0.83 nM and a Max MFI of 4240. Moreover, the OD450 nm in [15] came to 0.12 OD450 nm.
As to hIgG1 (IgG control) (antibody), the OD450 nm in assay [16] is 0.28 OD450 nm; in assay [17] it was 0.16 OD450 nm; in assay [15], 0.2 OD450 nm; in assay [18], 0.24 OD450 nm.
